Data from US20120041185A1, “dTDP-BETA-D-FUCOFURANOSE, ITS PREPARATION METHOD AND USE” (TIANJIN BIOCHIP TECHNOLOGY CORPORATION, priority 2007, published 2012).

B1: Fcf2: dTDP-D-Fucp mutase of E. coli O52 converting dTDP-D-Fucp to dTDP-D-Fucf, 377 amino acids, SEQ ID NO:4 (protein)
chain: MNKVLIIGSGFSGATIARLLAEENIKVKIIDDRKHIGGNCYDERDEKTGINVHVYGPHIFHTDNEDVWNFVNKYGTFQPYTTRLKANAKGQIYSLPVNLHTINQYYKTALSPTEARKLIASKGDQTINDPQSFEEQALKFVGEDLYKTFFYGYPKKQWGMEPKEIPASVLKRLPVRFNYDDNYFFHKFQGIPRDGYTPLFQNLLNHPNIEFELGKKVNRATVEELITSEQYGHVFFSGAIDHFYDYEFGMLQYRTLDFEKFYSEDDDYQGCVVMSYCDEDVPYTRVTEHKYFTPWEEHKGSVLYKEFSRSCDKEDIPYYPVRLVSGNSIWNKYEQKAKEETNITFIGRLATYRYLDMDVCIKEAIECAQLYIKNNKE
modifications: E. coli O52
B2: Fcf1: dTDP-6-deoxy-D-xylo-hex-4-ulopyranose reductase of E. coli O52, 316 amino acids, SEQ ID NO:3 (protein)
chain: MDARKNGVLITGGAGFIGKALITEMVERQIPLVSFDISDKPDSLPELSEYFNWYKFSYLESSQRIKELHEIVSRHNIKTVIHLATTMFPHESKKNIDKDCLENVYANVCFFKNLYENGCEKIIFASSGGTVYGKSDTPFSEDDALLPEISYGLSKVMTETYLRFIAKELNGKSISLRISNPYGEGQRIDGKQGVIPIFLNKISNDIPIDIIGSIESKRDYIYISDLVQAFMCSLEYEGHEDIFNIGSGESITLKKLIETIEFKLNKKAVIGFQDPIHTNANGIILDIKRAMAELGWRPTVVLDDGIDKLIKSIRCK
modifications: E. coli O52

What was measured:
[1] = Enzyme activity assay of Fcf2: temperature optima (capillary electrophoresis); format: biochemical, E. coli O52; settings: for Transformation rate (%): 3 hours, 2 mM dTDP-D-fucose, 3.9 μM enzyme
Procedure: 25 μl reactions in 0.5 ml centrifugal tube contain 2 mM dTDP-D-fucose, 50 mM Tris-HCl buffer (pH 7.4) 5 mM divalent ion chloride and 3.9 μM recombinant dTDP-D-Glcfucofuranose mutase protein purified in example 2. The reactions are proceeded at certain temperature for 3 hours. Then add chloroform of equal volume to extract protein. The aqueous phase is detected by Beckman Coulter P/ACE MDQ capillary electrophoresis.

[2] = Enzyme activity assay of Fcf1: temperature optima and kinetic parameters (capillary electrophoresis); format: biochemical, E. coli O52; settings: for Transformation rate (%): 2 hours, 2 mM dTDP-D-Glco, 3 mM NADPH, 0.25 μM enzyme
Procedure: 20 μl reactions in 0.5 ml centrifugal tube contain 2 mM dTDP-D-Glco, 3 mM NADPH, 50 mM Tris-HCl buffer (pH7.4), 5 mM divalent ion chloride and 0.25 μM recombinant dTDP-D-GIcO reductase protein purified in example 2. The reactions are proceeded at certain temperatures for 2 hours. Then add chloroform of equal volume to extract protein. The aqueous phase is detected by Beckman Coulter P/ACE MDQ capillary electrophoresis.
In the condition of the foregoing reaction (37° C., 3 mM MADPH, 50 mM Tris-HCl buffer (pH 7.4), 0.25 μM enzyme, 30 seconds), the concentration of dTDP-GIcO is 0.1-1 mM. Measure the concentration of dTDP-Qui4N.

[3] = 37° C., pH 7.4, 0.25 μM enzyme, 30 seconds, dTDP-GIcO 0.1-1 mM, Michaelis-Menten equation

Molecule	Transformation rate (%) ([1]; 4° C.)	Transformation rate (%) ([1]; 15° C.)	Transformation rate (%) ([1]; 25° C.)	Transformation rate (%) ([1]; 37° C.)	Transformation rate (%) ([1]; 50° C.)	Transformation rate (%) ([1]; 65° C.)	Transformation rate (%) ([1]; 80° C.)	optimum temperature for the enzyme activity ([1]; standard reactions at 4-80° C.) [°C]	Transformation rate (%) ([2]; 4° C.)	Transformation rate (%) ([2]; 15° C.)	Transformation rate (%) ([2]; 25° C.)	Transformation rate (%) ([2]; 37° C.)	Km [2, 3] [µM]	kcat [2, 3] [s⁻¹]	Transformation rate (%) ([2]; 50° C.)	Transformation rate (%) ([2]; 65° C.)	Transformation rate (%) ([2]; 80° C.)	optimum temperature for the enzyme activity ([2]; standard reactions at 4-80° C.)
B1	1.6	9.5	9.6	9.6	4.7	0	0	37	–	–	–	–	–	–	–	–	–	–
B2	–	–	–	–	–	–	–	–	47.0	100	100	100	540	15.9	35.5	31	22	15-37 °C
